Results published in article PMC9328939, “A Randomized Double‐Blind Placebo‐Controlled First‐In‐Human Phase 1 Trial of TransCon PTH in Healthy Adults” (Journal of Bone and Mineral Research, 2020).
Several values for one entry are separate records, joined by “and”; a condition that tells them apart may be missing. Equal entries are not always repeated.

Legend:
healthy adults [1] = test: Pharmacodynamics: renal tubular maximum reabsorption of phosphate/GFR (TMP/GFR); type: in vivo, human; details: MAD cohorts, near steady-state (days 8 to 10); linear regression on dose, p = .0022
Procedure: The ratio, TMP/GFR is based on sP, urine phosphate (uP), serum creatinine (sCr), and urine creatinine (uCr) and was calculated as follows[18]: (2) TMP/GFR=sP–uPxsCr/uCr
All statistical analyses were performed using SAS 9.3 or higher (SAS Institute, Inc., Cary, NC, USA). Summary statistics were reported for continuous data, including mean, standard deviation, standard error, median, minimum, and maximum, whereas number and percentage of subjects within treatment groups were reported for categorical data. For sP and TMP/GFR, a linear regression model was performed for the change from baseline, with dose and baseline as independent variables at near steady‐state. Near steady‐state was defined as the average of predose values on day 8, 9, and 10. Dose was defined as a continuous variable where placebo was considered zero.

healthy adults [2] = test: Pharmacodynamics: bone turnover markers (serum BSAP, P1NP, CTx; urine NTx); type: in vivo, human; details: MAD
Procedure: The PD endpoints included albumin‐adjusted sCa, fractional excretion of calcium, sP, renal tubular maximum reabsorption of phosphate/glomerular filtration rate (TMP/GFR), intact endogenous PTH(1‐84), osteoblastic bone formation markers (serum bone‐specific alkaline phosphatase [BSAP] and P1NP), osteoclastic bone resorption markers (urine NTx and serum CTx), sMg, and 1,25‐dihydroxyvitamin D. PK samples were collected predose and at regular intervals postdose through 96 hours for the SAD cohorts and through day14 for the MAD cohorts.

healthy adults [3] = details: in vivo
Procedure: (§1) Subjects attended a screening visit; those who met eligibility criteria were randomly assigned to a SAD or MAD cohort (n = 10/cohort; eight active and two placebo) and received a single or multiple dose(s) of TransCon PTH, respectively, via a syringe and 31G 8‐mm needle s.c. to the abdomen. […] Multiple TransCon PTH doses administered daily for 10 days ranged from 3.5 to 24 μg PTH(1‐34)/day. Throughout drug administration and for 4 days following the final dose, subjects remained housed for laboratory tests and safety monitoring.
(§2) At screening, demographic information, medical history, and concomitant medications, vital signs with height and weight, hematology, blood chemistry (including sCa, sP, and sMg), intact endogenous PTH(1‐84), 1,25‐dihydroxyvitamin D, and urine samples were collected. In addition, a limited physical examination and electrocardiogram (ECG) were performed.
(§3) Via regular vital sign checks, physical examinations, and safety laboratory tests, subjects were also monitored for adverse events (AEs) throughout the trial, including injection site reactions (erythema, ecchymosis, edema, pruritus, and pain).

[4] = tested on: anti-PTH binding antibodies; test: Anti-PTH binding antibodies, electrochemiluminescence bridging assay; type: in vivo, human; details: MAD cohorts, serum predose and day 14; screening and confirmatory assay
Procedure: Twice‐daily 12‐hour urine samples (including calcium, phosphorus, magnesium, and creatinine) were also collected. In MAD cohorts, serum samples collected from TransCon PTH‐treated and placebo‐treated subjects predose and postdose on day 14 were analyzed for anti‐PTH binding antibodies by BioAgilytix (Durham, NC, USA) using an electrochemiluminescence bridging assay. Samples were analyzed using a multitiered approach consisting of a screening assay and a confirmatory assay.

healthy adults [5] = test: Safety and tolerability: adverse events in SAD and MAD cohorts
Procedure: as §1, §2, §3

[6] = MAD cohorts administered TransCon PTH (n = 50)
[7] = MAD, 3.5 μg/day s.c. x 10 days, n = 8, number of subjects (% of cohort)
[8] = MAD, 3.5 μg/day x 10 days, n = 8, at least possibly related, number of subjects (%)
[9] = MAD, 7 μg/day s.c. x 10 days, n = 8, number of subjects (% of cohort)
[10] = MAD, 7 μg/day x 10 days, n = 8, at least possibly related, number of subjects (%)
[11] = MAD, 12 μg/day s.c. x 10 days, n = 10, number of subjects (% of cohort)
[12] = MAD, 16 μg/day s.c. x 10 days, n = 8, number of subjects (% of cohort)
[13] = MAD, 16 μg/day x 10 days, n = 8, at least possibly related, number of subjects (%)
[14] = MAD, 20 μg/day s.c. x 10 days, n = 8, number of subjects (% of cohort)
[15] = MAD, 20 μg/day x 10 days, n = 8, at least possibly related, number of subjects (%)
[16] = MAD, 24 μg/day s.c. x 10 days, n = 8, number of subjects (% of cohort)
[17] = MAD, 24 μg/day x 10 days, n = 8, at least possibly related, number of subjects (%)
[18] = MAD, Total of all TransCon PTH doses (3.5 to 24 μg/day), n = 50, number of subjects (%)
[19] = MAD, Total of all TransCon PTH doses, n = 50, at least possibly related, number of subjects (%)
[20] = SAD cohorts administered TransCon PTH (n = 56)
[21] = SAD, Total of all TransCon PTH doses (3.5 to 124 μg), n = 56, number of subjects (%)
[22] = SAD, Total of all TransCon PTH doses, n = 56, at least possibly related, number of subjects (%)
[23] = SAD, single s.c. 3.5 μg, n = 8, number of subjects (% of cohort)
[24] = SAD, single s.c. 3.5 μg, n = 8, vasodilatory AEs at least possibly related to study drug, number of subjects (%)
[25] = SAD, single s.c. 12 μg, n = 8, at least possibly related, number of subjects (%)
[26] = SAD, single s.c. 12 μg, n = 8, number of subjects (% of cohort)
[27] = SAD, single s.c. 32 μg, n = 8, at least possibly related, number of subjects (%)
[28] = SAD, single s.c. 32 μg, n = 8, number of subjects (% of cohort)
[29] = SAD, single s.c. 48 μg, n = 8, at least possibly related, number of subjects (%)
[30] = SAD, single s.c. 48 μg, n = 8, number of subjects (% of cohort)
[31] = SAD, single s.c. 72 μg, n = 8, at least possibly related, number of subjects (%)
[32] = SAD, single s.c. 72 μg, n = 8, number of subjects (% of cohort)
[33] = SAD, single s.c. 100 μg, n = 8, at least possibly related, number of subjects (%)
[34] = SAD, single s.c. 100 μg, n = 8, number of subjects (% of cohort)
[35] = SAD, single s.c. 124 μg, n = 8, at least possibly related, number of subjects (%)
[36] = SAD, single s.c. 124 μg, n = 8, number of subjects (% of cohort)

## TransCon PTH: long-acting, essentially inactive prodrug: PTH(1-34) transiently bound to an inert 40 kDa mPEG carrier via a proprietary autocleaving linker
Healthy adults [1]
  change in TMP/GFR from baseline: significant dose‐dependent decrease
Healthy adults [2]; 10 days of administration, compared to placebo
  serum BSAP (osteoblastic bone formation marker): neither the osteoblastic bone formation marker, BSAP (Fig. 8) or P1NP (data not shown), increased
Healthy adults [2]; 10 days of administration, compared to placebo, data not shown
  P1NP (osteoblastic bone formation marker): neither the osteoblastic bone formation marker, BSAP (Fig. 8) or P1NP (data not shown), increased
Healthy adults [2]; Free PTH at steady-state until at least day 11
  time course of serum CTx levels: declined from day 8 to baseline by day 13
Healthy adults [2]; over 10 days of administration, compared to placebo
  serum CTx (osteoclastic bone resorption marker): increased modestly
Healthy adults [2]; over 10 days, data not shown
  urine NTx (osteoclastic bone resorption marker): no consistent increase
Healthy adults [3]
  treatment-emergent AE: upper respiratory tract infections: 6%
[4]
  anti-PTH antibodies: No anti‐PTH antibodies were detected
Healthy adults [5]; [6]
  treatment-emergent AE: catheter site phlebitis: 8%
  treatment-emergent AE: dizziness: 10%
  treatment-emergent AE: headache: 12%
  treatment-emergent AE: musculoskeletal pain: 6%
  treatment-emergent AE: palpitations: 8%
  treatment-emergent AE: postural dizziness: 6%
  treatment-emergent AE: presyncope: 6%
Healthy adults [5]; [7]
  Any AE (%): 6 (75.0) %
  Any SAE (%): 0 (0) %
  Any drug-related AE (%): 1 (12.5) %
  Any moderate or severe AE (%): 2 (25.0) %
Healthy adults [5]; [8]
  Dizziness, light-headedness (including postural/orthostatic dizziness, syncope, presyncope) (%): 1 (12.5) %
  Tachycardia/palpitations (%): 1 (12.5) %
Healthy adults [5]; [9]
  Any AE (%): 6 (75.0) %
  Any SAE (%): 0 (0) %
  Any drug-related AE (%): 2 (25.0) %
  Any moderate or severe AE (%): 3 (37.5) %
Healthy adults [5]; [10]
  Dizziness, light-headedness (including postural/orthostatic dizziness, syncope, presyncope) (%): 1 (12.5) %
  Tachycardia/palpitations (%): 0 (0.0) %
Healthy adults [5]; [11]
  Any AE (%): 7 (70.0) %
  Any SAE (%): 1 (10.0) %
  Any drug-related AE (%): 3 (30.0) %
  Any moderate or severe AE (%): 2 (20.0) %
Healthy adults [5]; MAD, 12 μg/day x 10 days, n = 10, at least possibly related, number of subjects (%)
  Tachycardia/palpitations (%): 0 (0.0) %
Healthy adults [5]; [12]
  Any AE (%): 4 (50.0) %
  Any SAE (%): 0 (0) %
  Any drug-related AE (%): 2 (25.0) %
  Any moderate or severe AE (%): 1 (12.5) %
Healthy adults [5]; [13]
  Dizziness, light-headedness (including postural/orthostatic dizziness, syncope, presyncope) (%): 0 (0.0) %
  Tachycardia/palpitations (%): 0 (0.0) %
Healthy adults [5]; [14]
  Any AE (%): 3 (37.5) %
  Any SAE (%): 0 (0) %
  Any drug-related AE (%): 2 (25.0) %
  Any moderate or severe AE (%): 1 (12.5) %
Healthy adults [5]; [15]
  Dizziness, light-headedness (including postural/orthostatic dizziness, syncope, presyncope) (%): 0 (0.0) %
  Tachycardia/palpitations (%): 1 (12.5) %
Healthy adults [5]; MAD, 24 μg PTH(1-34)/day cohort, four of eight, placebo two of two (100%)
  subjects reporting vasodilatory or potentially vasodilatory AEs: 50%
Healthy adults [5]; MAD, 24 μg PTH(1-34)/day, one of three males, discontinued dosing after the sixth dose
  albumin-adjusted sCa in a subject with symptomatic hypercalcemia: 11.68 mg/dL
Healthy adults [5]; MAD, 24 μg PTH(1-34)/day, single subject
  albumin-adjusted sCa in an asymptomatic subject on day 11: 11.76 mg/dL
Healthy adults [5]; [16]
  Any AE (%): 7 (87.5) %
  Any SAE (%): 0 (0) %
  Any drug-related AE (%): 6 (75.0) %
  Any moderate or severe AE (%): 5 (62.5) %
Healthy adults [5]; [17]
  Dizziness, light-headedness (including postural/orthostatic dizziness, syncope, presyncope) (%): 2 (25.0) %
  Tachycardia/palpitations (%): 3 (37.5) %
Healthy adults [5]; [18]
  Any AE (%): 66% and 33 (66.0) %
  Any SAE (%): 1 (2.0) %
  Any drug-related AE (%): 16 (32.0) %
  Any moderate or severe AE (%): 14 (28.0) %
Healthy adults [5]; [19]
  Dizziness, light-headedness (including postural/orthostatic dizziness, syncope, presyncope) (%): 5 (10.0) %
  Tachycardia/palpitations (%): 5 (10.0) %
Healthy adults [5]; MAD, healthy volunteers, daily s.c. x 10 days
  maximum tolerable dose (MTD): 20 μg PTH(1-34)/day
Healthy adults [5]; SAD and MAD cohorts
  discontinuation of the trial due to an AE: No subjects
  drug-related SAEs or severe AEs: no drug‐related SAEs or severe AEs
  physical examination, ECG, standard safety laboratory tests: no safety concerns were detected
Healthy adults [5]; SAD and MAD cohorts, s.c.
  tolerability: generally well tolerated
Healthy adults [5]; [20]
  treatment-emergent AE: dizziness: 10.7%
  treatment-emergent AE: headache: 7.1%
  treatment-emergent AE: postural dizziness: 5.4%
Healthy adults [5]; SAD cohorts, up to the top dose of 124 μg PTH(1-34)
  maximum tolerable dose (MTD): No MTD was observed
Healthy adults [5]; [21]
  Any AE (%): 41.1% and 23 (41.1) %
  Any SAE (%): 1 (1.8) %
  Any drug-related AE (%): 14 (25.0) %
  Any moderate or severe AE (%): 6 (10.7) %
Healthy adults [5]; [22]
  Dizziness, light-headedness (including postural/orthostatic dizziness, syncope, presyncope) (%): 4 (7.1) %
  Tachycardia/palpitations (%): 0 (0.0) %
Healthy adults [5]; [23]
  Any AE (%): 1 (12.5) %
  Any SAE (%): 0 (0) %
  Any drug-related AE (%): 1 (12.5) %
  Any moderate or severe AE (%): 0 (0) %
Healthy adults [5]; [24]
  Dizziness, light-headedness (including postural/orthostatic dizziness, syncope, presyncope) (%): 0 (0.0) %
  Tachycardia/palpitations (%): 0 (0.0) %
Healthy adults [5]; [25]
  Dizziness, light-headedness (including postural/orthostatic dizziness, syncope, presyncope) (%): 0 (0.0) %
  Tachycardia/palpitations (%): 0 (0.0) %
Healthy adults [5]; [26]
  Any AE (%): 3 (37.5) %
  Any SAE (%): 1 (12.5) %
  Any drug-related AE (%): 1 (12.5) %
  Any moderate or severe AE (%): 1 (12.5) %
Healthy adults [5]; [27]
  Dizziness, light-headedness (including postural/orthostatic dizziness, syncope, presyncope) (%): 1 (12.5) %
  Tachycardia/palpitations (%): 0 (0.0) %
Healthy adults [5]; [28]
  Any AE (%): 3 (37.5) %
  Any SAE (%): 0 (0) %
  Any drug-related AE (%): 2 (25.0) %
  Any moderate or severe AE (%): 0 (0) %
Healthy adults [5]; [29]
  Dizziness, light-headedness (including postural/orthostatic dizziness, syncope, presyncope) (%): 0 (0.0) %
  Tachycardia/palpitations (%): 0 (0.0) %
Healthy adults [5]; [30]
  Any AE (%): 6 (75.0) %
  Any SAE (%): 0 (0) %
  Any drug-related AE (%): 5 (62.5) %
  Any moderate or severe AE (%): 2 (25.0) %
Healthy adults [5]; [31]
  Dizziness, light-headedness (including postural/orthostatic dizziness, syncope, presyncope) (%): 0 (0.0) %
  Tachycardia/palpitations (%): 0 (0.0) %
Healthy adults [5]; [32]
  Any AE (%): 2 (25.0) %
  Any SAE (%): 0 (0) %
  Any drug-related AE (%): 0 (0.0) %
  Any moderate or severe AE (%): 1 (12.5) %
Healthy adults [5]; [33]
  Dizziness, light-headedness (including postural/orthostatic dizziness, syncope, presyncope) (%): 2 (25.0) %
  Tachycardia/palpitations (%): 0 (0.0) %
Healthy adults [5]; [34]
  Any AE (%): 4 (50.0) %
  Any SAE (%): 0 (0) %
  Any drug-related AE (%): 3 (37.5) %
  Any moderate or severe AE (%): 1 (12.5) %
Healthy adults [5]; [35]
  Dizziness, light-headedness (including postural/orthostatic dizziness, syncope, presyncope) (%): 1 (12.5) %
  Tachycardia/palpitations (%): 0 (0.0) %
Healthy adults [5]; [36]
  Any AE (%): 4 (50.0) %
  Any SAE (%): 0 (0) %
  Any drug-related AE (%): 2 (25.0) %
  Any moderate or severe AE (%): 1 (12.5) %
